Assay results taken from the supplement of paper PMC11780869.

System: Bacillus subtilis
Experiment: cleaved RNA product abundance (RNA/gDNA barcode ratio) relative to median wild-type variant (ratio to wild type); higher = more accumulation of the downstream cleavage product
Settings: experiment (reporter, strain, medium): exp 8a: truncated aprE reporter, strain BJT201 with 2% xylose (RNase J1 expressed); cleavage site: glnRA (positions -5 to +31 mutated)
Summary of the method: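 Oligos with a 9% error rate were used to build barcoded, mutagenized RNase Y cleavage-site windows within truncated aprE or tetM reporter mRNAs, which were integrated into the B. subtilis chromosome. Cultures were grown in LB at 37°C between OD600 0.0003 and 0.3. Cleaved RNA was gel-selected, reverse transcribed and barcode-sequenced, as were genomic DNA barcodes, and UMIs were collapsed. Cleaved product abundance is the scaled RNA:gDNA barcode ratio, with the median construct carrying the unmutated site as reference.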

Sequence | cleaved RNA product abundance
CGACATGTCCCGCTTCTTTCATTAATCCGTTAGCAACTGATTTGCTATATACATTAACCTTTTAAGAGGAGGAAT | 1.33
CGACATGTCCCGCTTCTTTCATTAATCCGTTAGCAACTGATTTGCTATATACATTTACCCTTTAAGAGGAGGAAT | 0.843
CGACATGTCCCGCTTCTTTCATTAATCCGTTAGCAACTGATTTGCTATATACATTTACCTTTTAAGAGGAGGAAT | 0.96
CGACATGTCCCGCTTCTTTCATTAATCCGTTAGCAACTGATTTGCTATATACATTTACTTTTTAAGAGGAGGAAT | 1.06
CGACATGTCCCGCTTCTTTCATTAATCCGTTAGCAACTGATTTGCTATATACATTTATCTTTTAAGAGGAGGAAT | 1.36
CGACATGTCCCGCTTCTTTCATTAATCCGTTAGCAACTGATTTGCTATATACATTTTCCTTTTAAGAGGAGGAAT | 0.328
CGACATGTCCCGCTTCTTTCATTAATCCGTTAGCAACTGATTTGCTATATAGATTTACCTTTTAAGAGGAGGAAT | 0.979
CGACATGTCCCGCTTCTTTCATTAATCCGTTAGCAACTGATTTGCTTTATACATTTACCTTTTAAGAGGAGGAAT | 0.282
CGACATGTCCCGCTTCTTTCATTAATCCGTTAGCAACTGATTTTCTATATACATTTACCTTTTAAGAGGAGGAAT | 0.689
CGACATGTCCCGCTTCTTTCATTAATCCGTTAGCAACTGCTTTGCTATATACATTAACCTTTTAAGAGGAGGAAT | 0.575
CGACATGTCCCGCTTCTTTCATTAATCCGTTAGCAACTGCTTTGCTATATACATTTACCTTTTAAGAGGAGGAAT | 0.307
CGACATGTCCCGCTTCTTTCATTAATCCGTTAGCAACTGCTTTGCTGTATACATTTACCTTTTAAGAGGAGGAAT | 0.106
CGACATGTCCCGCTTCTTTCATTAATCCGTTAGCAACTGGTTTGATATATACATTTACCTTTTAAGAGGAGGAAT | 0.485
CGACATGTCCCGCTTCTTTCATTAATCCGTTAGCAACTGGTTTGCTATATACATTTACCTTTTAAGAGGAGGAAT | 0.811
CGACATGTCCCGCTTCTTTCATTAATCCGTTAGCAACTGGTTTGCTATATACATTTACTTTTTAAGAGGAGGAAT | 0.918
CGACATGTCCCGCTTCTTTCATTAATCCGTTAGCAACTGGTTTGCTGTATACATTTACCTTTTAAGAGGAGGAAT | 0.0825
CGACATGTCCCGCTTCTTTCATTAATCCGTTAGCAACTGTAATGCTATATACATTTACCTTTTAAGAGGAGGAAT | 1.06
CGACATGTCCCGCTTCTTTCATTAATCCGTTAGCAACTGTACTGCTATATACATTTACCTTTTAAGAGGAGGAAT | 0.328
CGACATGTCCCGCTTCTTTCATTAATCCGTTAGCAACTGTATTACTATATACATTTACCTTTTAAGAGGAGGAAT | 0.835
CGACATGTCCCGCTTCTTTCATTAATCCGTTAGCAACTGTATTCCTATATACATTTACCTTTTAAGAGGAGGAAT | 0.45
CGACATGTCCCGCTTCTTTCATTAATCCGTTAGCAACTGTATTGATATATACATTTACCTTTTAAGAGGAGGAAT | 0.658
CGACATGTCCCGCTTCTTTCATTAATCCGTTAGCAACTGTATTGCAATATACATTTACCTTTTAAGAGGAGGAAT | 0.678

Sequence | cleaved RNA product abundance
CGACATGTCCCGCTTCTTTCATTAATCCGTTAGCAACTGTATTGCTAAATACATTTACCTTTTAAGAGGAGGAAT | 0.438
CGACATGTCCCGCTTCTTTCATTAATCCGTTAGCAACTGTATTGCTATATAAATTTACCTTTTAAGAGGAGGAAT | 0.849
CGACATGTCCCGCTTCTTTCATTAATCCGTTAGCAACTGTATTGCTATATACATATACCTTTTAAGAGGAGGAAT | 0.755
CGACATGTCCCGCTTCTTTCATTAATCCGTTAGCAACTGTATTGCTATATACATGTACCTTTTAAGAGGAGGAAT | 0.783
CGACATGTCCCGCTTCTTTCATTAATCCGTTAGCAACTGTATTGCTATATACATTTAACTTTTAAGAGGAGGAAT | 1.13
CGACATGTCCCGCTTCTTTCATTAATCCGTTAGCAACTGTATTGCTATATACATTTACATTTTAAGAGGAGGAAT | 1.47
CGACATGTCCCGCTTCTTTCATTAATCCGTTAGCAACTGTATTGCTATATACATTTACCCTTTAAGAGGAGGAAT | 1.1
CGACATGTCCCGCTTCTTTCATTAATCCGTTAGCAACTGTATTGCTATATACATTTACCTTTTAAGAGGAGGAAT | 0.943
CGACATGTCCCGCTTCTTTCATTAATCCGTTAGCAACTGTATTGCTATATACATTTACGTTTTAAGAGGAGGAAT | 1.16
CGACATGTCCCGCTTCTTTCATTAATCCGTTAGCAACTGTATTGCTATATACATTTATCTTTTAAGAGGAGGAAT | 1.07
CGACATGTCCCGCTTCTTTCATTAATCCGTTAGCAACTGTATTGCTATATTCATTTACCTTTTAAGAGGAGGAAT | 0.16
CGACATGTCCCGCTTCTTTCATTAATCCGTTAGCAACTGTATTGCTATTTACATTTACCTTTTAAGAGGAGGAAT | 0.202
CGACATGTCCCGCTTCTTTCATTAATCCGTTAGCAACTGTATTGGTATATACATTTACCTTTTAAGAGGAGGAAT | 0.175
CGACATGTCCCGCTTCTTTCATTAATCCGTTAGCAACTGTATTTCTATATACATTTACCTTTTAAGAGGAGGAAT | 0.506
CGACATGTCCCGCTTCTTTCATTAATCCGTTAGCAACTGTCTTACTATATACATTTACCTTTTAAGAGGAGGAAT | 0.324
CGACATGTCCCGCTTCTTTCATTAATCCGTTAGCAACTGTCTTGATATATACATTTACCTTTTAAGAGGAGGAAT | 0.547
CGACATGTCCCGCTTCTTTCATTAATCCGTTAGCAACTGTCTTGCTATATACATTTACCTTTTAAGAGGAGGAAT | 0.849
CGACATGTCCCGCTTCTTTCATTAATCCGTTAGCAACTGTCTTGCTATCTACATTTACCTTTTAAGAGGAGGAAT | 0.0931
CGACATGTCCCGCTTCTTTCATTAATCCGTTAGCAACTGTGTAGCTATATACATTTACCTTTTAAGAGGAGGAAT | 0.23
CGACATGTCCCGCTTCTTTCATTAATCCGTTAGCAACTGTGTTACTATATACATTTACCTTTTAAGAGGAGGAAT | 0.274
CGACATGTCCCGCTTCTTTCATTAATCCGTTAGCAACTGTGTTGCTATATACATTTACATTTTAAGAGGAGGAAT | 0.517
CGACATGTCCCGCTTCTTTCATTAATCCGTTAGCAACTGTGTTGCTATATACATTTACCATTTAAGAGGAGGAAT | 0.38

Sequence | cleaved RNA product abundance
CGACATGTCCCGCTTCTTTCATTAATCCGTTAGCAACTGTGTTGCTATATACATTTACCGTTTAAGAGGAGGAAT | 0.537
CGACATGTCCCGCTTCTTTCATTAATCCGTTAGCAACTGTGTTGCTATATACATTTACCTTTTAAGAGGAGGAAT | 0.358
CGACATGTCCCGCTTCTTTCATTAATCCGTTAGCAACTGTGTTGTTATATACATTTACCTTTTAAGAGGAGGAAT | 1.01
CGACATGTCCCGCTTCTTTCATTAATCCGTTAGCAACTGTGTTTCTATATACATTTAACTTTTAAGAGGAGGAAT | 0.453
CGACATGTCCCGCTTCTTTCATTAATCCGTTAGCAACTGTTAAGCTATATACATTTACCTTTTAAGAGGAGGAAT | 0.279
CGACATGTCCCGCTTCTTTCATTAATCCGTTAGCAACTGTTACGCTATATACATTTACCTTTTAAGAGGAGGAAT | 0.54
CGACATGTCCCGCTTCTTTCATTAATCCGTTAGCAACTGTTATCCTATATACATTTACCTTTTAAGAGGAGGAAT | 0.337
CGACATGTCCCGCTTCTTTCATTAATCCGTTAGCAACTGTTATGATATATACATTTACCTTTTAAGAGGAGGAAT | 0.387
CGACATGTCCCGCTTCTTTCATTAATCCGTTAGCAACTGTTATGCCATATACATTTACCTTTTAAGAGGAGGAAT | 0.232
CGACATGTCCCGCTTCTTTCATTAATCCGTTAGCAACTGTTATGCTAAATACATTTACCTTTTAAGAGGAGGAAT | 0.111
CGACATGTCCCGCTTCTTTCATTAATCCGTTAGCAACTGTTATGCTATATACAATTACCTTTTAAGAGGAGGAAT | 1.02
CGACATGTCCCGCTTCTTTCATTAATCCGTTAGCAACTGTTATGCTATATACATTTACCTTTTAAGAGGAGGAAT | 0.695
CGACATGTCCCGCTTCTTTCATTAATCCGTTAGCAACTGTTATGCTATATACATTTACTTTTTAAGAGGAGGAAT | 1.33
CGACATGTCCCGCTTCTTTCATTAATCCGTTAGCAACTGTTATGCTATATACATTTAGCTTTTAAGAGGAGGAAT | 0.711
CGACATGTCCCGCTTCTTTCATTAATCCGTTAGCAACTGTTATGCTATATACCTTTACCTTTTAAGAGGAGGAAT | 0.184
CGACATGTCCCGCTTCTTTCATTAATCCGTTAGCAACTGTTATGCTATATACGTTTACCTTTTAAGAGGAGGAAT | 0.232
CGACATGTCCCGCTTCTTTCATTAATCCGTTAGCAACTGTTATGCTATATAGATTTACCTTTTAAGAGGAGGAAT | 1.29
CGACATGTCCCGCTTCTTTCATTAATCCGTTAGCAACTGTTATGGTATATACATTTACCTTTTAAGAGGAGGAAT | 0.161
CGACATGTCCCGCTTCTTTCATTAATCCGTTAGCAACTGTTATGTTATATACATTTACCTTTTAAGAGGAGGAAT | 0.172
CGACATGTCCCGCTTCTTTCATTAATCCGTTAGCAACTGTTATTCTATATACATTTACCTTTTAAGAGGAGGAAT | 0.506
CGACATGTCCCGCTTCTTTCATTAATCCGTTAGCAACTGTTCAGCTATATACATTTACCTTTTAAGAGGAGGAAT | 0.344
CGACATGTCCCGCTTCTTTCATTAATCCGTTAGCAACTGTTCTGCAATATACATTTACCTTTTAAGAGGAGGAAT | 0.103
